One series has as its target MutSΔC800 D246C;MutL WT (Escherichia coli?;Escherichia coli?, UniProt P23909;P23367 1-800;1-615, D246C|). Put plainly: stopped-flow FRET and FP; 400 nM MutL mixed, 1 mM ATP; more binding at equilibrium than MutSΔC800 alone; SPR: 25 mM Hepes pH 7.5, 150 mM KCl, 5 mM MgCl2, 1 mM DTT, 0.05% Tween-20, 1 mM ATP (+20% glycerol for MutL-MutS assay); FP: same but 50 mM KCl, no ATP (+10% glycerol for full-length MutL); stopped-flow: 150 mM KCl, 10 uM ADP +/- 1 mM ATP, 15 C; FRET: 25 mM Hepes pH 7.2, 150 mM KCl, 5 mM MgCl2. The following applies: protein: recombinant;recombinant; tags: ;His6; chain copies: 2;2; label: FRET: Alexa Fluor 594 on top T11 and Alexa Fluor 488 on bottom T10; FP: 5' TAMRA on top; blunt, one G:T mismatch.

Series [1] concerns the target T1, MutSΔC800 D246C (UniProt P23909 1-800, D246C).
T1 sequence: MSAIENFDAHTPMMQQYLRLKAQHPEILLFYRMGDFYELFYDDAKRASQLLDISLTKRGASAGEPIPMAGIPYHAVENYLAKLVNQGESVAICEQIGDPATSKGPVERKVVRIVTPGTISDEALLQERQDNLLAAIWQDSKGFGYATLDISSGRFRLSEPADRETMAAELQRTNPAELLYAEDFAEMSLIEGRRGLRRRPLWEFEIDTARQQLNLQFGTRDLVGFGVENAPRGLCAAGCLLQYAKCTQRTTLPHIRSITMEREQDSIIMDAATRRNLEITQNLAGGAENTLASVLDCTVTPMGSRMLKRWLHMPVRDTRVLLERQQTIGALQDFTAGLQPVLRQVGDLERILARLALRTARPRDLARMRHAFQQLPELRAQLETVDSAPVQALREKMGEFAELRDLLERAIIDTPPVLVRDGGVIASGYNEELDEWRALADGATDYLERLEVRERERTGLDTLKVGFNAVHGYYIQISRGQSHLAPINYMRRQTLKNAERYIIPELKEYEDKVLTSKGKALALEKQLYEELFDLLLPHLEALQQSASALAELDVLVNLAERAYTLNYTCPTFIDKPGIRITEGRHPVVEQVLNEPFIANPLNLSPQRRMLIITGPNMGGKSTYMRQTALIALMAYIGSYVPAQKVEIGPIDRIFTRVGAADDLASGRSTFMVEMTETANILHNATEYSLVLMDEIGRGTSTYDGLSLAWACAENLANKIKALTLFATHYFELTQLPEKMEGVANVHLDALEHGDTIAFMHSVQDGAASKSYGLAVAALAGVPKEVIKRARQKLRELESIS
Put plainly: stopped-flow FRET and FP; 10 uM ADP, no ATP; binding with kinking; SPR: 25 mM Hepes pH 7.5, 150 mM KCl, 5 mM MgCl2, 1 mM DTT, 0.05% Tween-20, 1 mM ATP (+20% glycerol for MutL-MutS assay); FP: same but 50 mM KCl, no ATP (+10% glycerol for full-length MutL); stopped-flow: 150 mM KCl, 10 uM ADP +/- 1 mM ATP, 15 C; FRET: 25 mM Hepes pH 7.2, 150 mM KCl, 5 mM MgCl2. The note with it: protein: recombinant; chain copies: 2; label: FRET: Alexa Fluor 594 on top T11 and Alexa Fluor 488 on bottom T10; FP: 5' TAMRA on top; blunt, one G:T mismatch.

For the next series, the target named is MutLLN40 N131C (UniProt P23367 1-349, N131C). In words: SPR; 1 mM ATP, 150 mM KCl; SPR: 25 mM Hepes pH 7.5, 150 mM KCl, 5 mM MgCl2, 1 mM DTT, 0.05% Tween-20, 1 mM ATP (+20% glycerol for MutL-MutS assay); FP: same but 50 mM KCl, no ATP (+10% glycerol for full-length MutL); stopped-flow: 150 mM KCl, 10 uM ADP +/- 1 mM ATP, 15 C; FRET: 25 mM Hepes pH 7.2, 150 mM KCl, 5 mM MgCl2. The note with it: protein: recombinant; tags: His; label: biotin at one end (immobilized), fluorescein at the other; blunt, one G:T mismatch. (In general: In SPR one partner is held on a chip, and binding of the other changes the refractive index at the surface.)

A further series concerns the target T2, MutS WT (UniProt P23909 1-853).
T2 sequence: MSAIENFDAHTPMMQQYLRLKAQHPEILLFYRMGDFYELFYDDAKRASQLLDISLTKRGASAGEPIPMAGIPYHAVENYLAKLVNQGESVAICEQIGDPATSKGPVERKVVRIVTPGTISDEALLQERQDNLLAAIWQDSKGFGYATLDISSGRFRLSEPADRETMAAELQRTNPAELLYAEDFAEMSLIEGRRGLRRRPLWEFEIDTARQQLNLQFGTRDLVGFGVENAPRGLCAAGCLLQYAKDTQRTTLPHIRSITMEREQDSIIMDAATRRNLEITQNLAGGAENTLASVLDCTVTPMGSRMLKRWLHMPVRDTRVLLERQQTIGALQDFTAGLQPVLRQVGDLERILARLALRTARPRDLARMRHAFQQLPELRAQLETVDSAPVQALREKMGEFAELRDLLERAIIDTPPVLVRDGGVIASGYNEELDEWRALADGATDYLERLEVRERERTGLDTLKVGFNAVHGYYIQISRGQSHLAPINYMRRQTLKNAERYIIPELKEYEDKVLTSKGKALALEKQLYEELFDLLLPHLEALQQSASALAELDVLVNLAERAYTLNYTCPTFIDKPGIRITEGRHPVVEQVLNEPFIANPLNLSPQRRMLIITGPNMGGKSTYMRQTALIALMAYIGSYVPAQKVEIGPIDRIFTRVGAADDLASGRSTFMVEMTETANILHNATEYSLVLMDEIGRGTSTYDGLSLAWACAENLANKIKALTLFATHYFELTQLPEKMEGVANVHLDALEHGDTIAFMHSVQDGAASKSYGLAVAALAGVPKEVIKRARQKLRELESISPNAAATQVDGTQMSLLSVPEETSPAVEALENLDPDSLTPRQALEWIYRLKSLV
Put plainly: SPR; 1 mM ATP, end-blocked with anti-fluorescein Fab; sliding clamp; SPR: 25 mM Hepes pH 7.5, 150 mM KCl, 5 mM MgCl2, 1 mM DTT, 0.05% Tween-20, 1 mM ATP (+20% glycerol for MutL-MutS assay); FP: same but 50 mM KCl, no ATP (+10% glycerol for full-length MutL); stopped-flow: 150 mM KCl, 10 uM ADP +/- 1 mM ATP, 15 C; FRET: 25 mM Hepes pH 7.2, 150 mM KCl, 5 mM MgCl2. The following applies: protein: recombinant; chain copies: 2; label: biotin at one end (immobilized), fluorescein at the other; blunt, one G:T mismatch.

The target of series [2] is T1, MutSΔC800 D246C. Put plainly: SPR; 1 mM ATP, 150 mM KCl; fast off-rate; SPR: 25 mM Hepes pH 7.5, 150 mM KCl, 5 mM MgCl2, 1 mM DTT, 0.05% Tween-20, 1 mM ATP (+20% glycerol for MutL-MutS assay); FP: same but 50 mM KCl, no ATP (+10% glycerol for full-length MutL); stopped-flow: 150 mM KCl, 10 uM ADP +/- 1 mM ATP, 15 C; FRET: 25 mM Hepes pH 7.2, 150 mM KCl, 5 mM MgCl2. The note with it: protein: recombinant; chain copies: 2; label: biotin at one end (immobilized), fluorescein at the other; blunt, one G:T mismatch.

Another series deals with MutS WT;MutL WT (Escherichia coli?;Escherichia coli?, UniProt P23909;P23367 1-853;1-615, |). Put plainly: SPR; 1 mM ATP, end-blocked; MutL binds preformed MutS clamp; SPR: 25 mM Hepes pH 7.5, 150 mM KCl, 5 mM MgCl2, 1 mM DTT, 0.05% Tween-20, 1 mM ATP (+20% glycerol for MutL-MutS assay); FP: same but 50 mM KCl, no ATP (+10% glycerol for full-length MutL); stopped-flow: 150 mM KCl, 10 uM ADP +/- 1 mM ATP, 15 C; FRET: 25 mM Hepes pH 7.2, 150 mM KCl, 5 mM MgCl2. The note with it: protein: recombinant;recombinant; tags: ;His6; chain copies: 2;2; label: biotin at one end (immobilized), fluorescein at the other; blunt, one G:T mismatch.

Series [3] addresses T1, MutSΔC800 D246C. In words: SPR; 1 mM ATP; fitted maximum response 104 RU; SPR: 25 mM Hepes pH 7.5, 150 mM KCl, 5 mM MgCl2, 1 mM DTT, 0.05% Tween-20, 1 mM ATP (+20% glycerol for MutL-MutS assay); FP: same but 50 mM KCl, no ATP (+10% glycerol for full-length MutL); stopped-flow: 150 mM KCl, 10 uM ADP +/- 1 mM ATP, 15 C; FRET: 25 mM Hepes pH 7.2, 150 mM KCl, 5 mM MgCl2. The note with it: protein: recombinant; chain copies: 2; label: immobilized for SPR; blunt, one G:T mismatch.

The target of series [4] is MutLLN40 N131C R162E/R266E/R316E (UniProt P23367 1-349, N131C;R162E;R266E;R316E). Put plainly: fluorescence polarization; 50 mM KCl; binding completely abolished; SPR: 25 mM Hepes pH 7.5, 150 mM KCl, 5 mM MgCl2, 1 mM DTT, 0.05% Tween-20, 1 mM ATP (+20% glycerol for MutL-MutS assay); FP: same but 50 mM KCl, no ATP (+10% glycerol for full-length MutL); stopped-flow: 150 mM KCl, 10 uM ADP +/- 1 mM ATP, 15 C; FRET: 25 mM Hepes pH 7.2, 150 mM KCl, 5 mM MgCl2. The note with it: protein: recombinant; tags: His; label: 5' TAMRA; blunt. For orientation: In fluorescence polarisation assays a small probe gives low polarisation when free and higher when bound to something large.

B1: 45-bp G:T mismatch DNA (dsDNA)
DNA 1: GTCATCCTCGTCTCAAGCTGCCAGGCACCAGTGTCAGCGTCCTAT
DNA 2: ATAGGACGCTGACACTGGTGCTTGGCAGCTTGAGACGAGGATGAC
As to B1, the binding result with MutSΔC800 D246C;MutL WT and in the series with MutSΔC800 D246C [1] was “binds” in each case.

B2: 100-bp G:T mismatch DNA (dsDNA)
DNA 1: AAACAGGCTTAGGCTGGAGCTGAAGCTTAGCTTAGGATCATCGAGGATCGAGCTCGGTGCAATTCAGCGGTACCCAATTCGCCCTATAGGCATCCAGGTT
DNA 2: AACCTGGATGCCTATAGGGCGAATTGGGTACCGCTGAATTGCACCGAGCTTGATCCTCGATGATCCTAAGCTAAGCTTCAGCTCCAGCCTAAGCCTGTTT
B2: the binding result was “no binding” with MutLLN40 N131C, “binds” with MutS WT, “binds” in the series with MutSΔC800 D246C [2] and “binds” with MutS WT;MutL WT.

B3: 41-bp G:T mismatch DNA (dsDNA)
DNA 1: ATAGGACGCTGACACTGGTGCTTGGCAGCTTCTAATTCGAT
DNA 2: ATCGAATTAGAAGCTGCCAGGCACCAGTGTCAGCGTCCTAT
Turning to B3, the binding result with MutSΔC800 D246C [3] is “binds”.

B4: 41-bp homoduplex, TAMRA (dsDNA)
DNA 1: ATAGGACGCTGACACTGGTGCTTGGCAGCTTCTAATTCGAT
DNA 2: ATCGAATTAGAAGCTGCCAAGCACCAGTGTCAGCGTCCTAT
Take B4: in series [4], the binding result is on record as “no binding”.

Source of the values: publication PMC4521584, “MutS/MutL crystal structure reveals that the MutS sliding clamp loads MutL onto DNA”.
